Results published in PMC4023160.
Blank lines part the entries; values can stand above or below the substance they belong to.

Assays:
[1] = target: ClpP protease (UniProt P0A6G7); test: HDX-MS; BAP (100 pmol) with ClpP (200 pmol), 3 min at 30°C in low salt buffer A (50 mM Tris pH 7.5, 25 mM KCl, 20 mM MgCl2, 2 mM DTT) with ATPγS, diluted 20-fold into D2O buffer, 60 s exchange; mass of full length BAP
[2] = target: BAP (ClpB with the ClpA tripeptide for ClpP binding), wild type (E. coli | not stated); test: negative-stain EM single-particle reconstruction; BAP(HAP)-ClpP complexes formed in 20 mM Tris-HCl pH 7.5, 20 mM KCl, 15 mM MgCl2, 1 mM DTT, 2 mM ATPγS; stained with 2% uranyl acetate; side views of 2:2 complexes cut into 1:1 halves; sixfold symmetry imposed or none
[3] = target: ClpP protease (UniProt P0A6G7); test: as above
[4] = target: HAP (Hsp104 with the ClpA tripeptide for ClpP binding) (S. cerevisiae); test: as above
[5] = target: BAP-E432A (repressed mutant) (E. coli | not stated); test: as above
[6] = target: BAP Trap (E279A/E678A) variant (E. coli | not stated); test: cryo-EM structure; BAPtrap-ClpP and ClpB alone, vitrified, in the presence of ATPγS; side views only

Chain of ClpP protease (P0A6G7 15-207): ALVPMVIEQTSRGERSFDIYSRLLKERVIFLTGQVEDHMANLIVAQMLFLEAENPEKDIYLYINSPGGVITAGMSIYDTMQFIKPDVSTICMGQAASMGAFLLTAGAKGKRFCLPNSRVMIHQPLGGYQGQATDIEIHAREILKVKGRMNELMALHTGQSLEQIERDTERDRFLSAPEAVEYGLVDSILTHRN

- amide protons in BAP protected from exchange by ClpP (amide protons) [1]: 30
- stoichiometry N [2]: 6
- stoichiometry N (BAP hexamers per ClpP double-heptamer) [3]: 2
Substance: BAP (ClpB with the ClpA tripeptide for ClpP binding), wild type

- stoichiometry N [4]: 6
Substance: HAP (Hsp104 with the ClpA tripeptide for ClpP binding)

- stoichiometry N [5]: 6
Substance: BAP-E432A (repressed mutant)

- stoichiometry N [6]: 6
Substance: BAP Trap (E279A/E678A) variant
